# Measurements: US9150634B2, “Epitopes of the human PDGF receptor able to bind human auto-antibodies, antibodies and uses thereof” (priority 2010, dated 2015)
# B1: Vlambda16F4: recombinant human monoclonal IgG1, VH PAM paired with Vlambda16F4 VL (SEQ ID No. 7) (antibody, V domains shown)
# VH: GLVKPLETLSLTCSVSGGSVSDGSYFWNWIRQPPGKGLEWIGYAYSRGTTNYSPSLKGRITISVDKSKNQISLKLTSVTPADTAVYYCARDSFEIWGQGTMVTV
# VL: QSALTQPASVSGSPGQSITISCTGTSSDVGGYNYVSWYQHHPGKAPKLMIYEVSHRPSGVSNRFSGSKSGNTASLTISGLQAEDEADYYCSSYTSSSHVVFGGGTKLTVL
# B2: Vk13B8: recombinant human monoclonal IgG1, VH PAM (SEQ ID No. 3) paired with Vk13B8 VL (SEQ ID No. 4); non-agonistic anti-PDGFR alpha (antibody, listed as Homo sapiens, V domains shown)
# VH: B1 VH
# VL: DIQMTQSPSSLSASVGDRVTITCRASQGISNYLAWFQQKPGKAPKSLIYAASSLQSGVPSKFSGSGSGTDFTLTISSLQPEDFATYYCQQYNSFPYTFGQGTKLEIK
# Experiments:
# normal human fibroblasts [1] = experiment: type I collagen gene transcription in normal human fibroblasts (real-time PCR); type: cell-based; settings: time course
# Excerpt: (§1) FIG. 5 Characterization of recombinant human monoclonal auto-antibodies (rHumaab). IgG were affinity-purified from serum-free supernatants of CHO cells stably transfected with each of the four rHumaab constructs and used (10 micrograms/ml) in four independent assays. Each result is representative of three experiments performed under the same conditions. (a) Vk13B8, Vk16F4 and Vlambda16F4, but not Vlambda13B8 rHumaab, immunoprecipitated PDGFR alpha from normal human fibroblast extracts. A mouse monoclonal anti-PDGFR alpha antibody was used as positive control. Immunoprecipitated PDGFR alpha was visualized by immunoblotting with rabbit anti-PDGFR alpha antibody-HRP. (b-c) Vk16F4 and Vlambda16F4, but not Vk13B8 and Vlambda13B8 rHumaab, induced (b) ROS production and (c) increased ERK phosphorylation (p-ERK) in normal human fibroblasts after 15 minutes incubation. […] Intracellular ROS production was measured by DCFH-DA fluorescence. […] Type I A1 and A2 collagen gene expression was measured by quantitative real-time PCR in RNA extracted from fibroblasts at baseline and after stimulation with the indicated reagents. […] Mouse collagen gene expression was measured by quantitative real-time PCR in RNA extracted from F alpha and F−/− fibroblasts at baseline and after 1 hour stimulation with Vk16F4 rHumaab or human PDGF-BB. […]
# PDGFR alpha [2] = biological target: T1, PDGFR alpha (Homo sapiens, UniProt P16234); experiment: optical biosensor binding to immobilized His-tagged PDGFR alpha; parameters: cDNA encoding aminoacids 1-834 of human PDGFR alpha; made in house
# Method: A detailed characterization of rHumaab interaction with human PDGFR alpha was performed on an optical biosensor, using as a molecular bait a homemade truncated conformer of this receptor containing the complete extracellular and transmembrane regions joined to a poly-histidine tail (HIS tag) replacing part of the intracellular domain, and serving both as an anchor to the biosensor surface and as a spacer. Preservation of proper folding of the immobilized receptor into a naïve-like conformation was verified by monitoring the interaction with its natural binding partner (PDGF-BB) and with two mouse monoclonal antibodies specific for conformational PDGFR alpha epitopes (FIG. 6a). Using this approach, both kinetics and equilibrium parameters of the interaction between PDGF-BB, each rHumaab and PDGFR alpha were determined. […] Additionally, the analysis of association and dissociation rate constants for soluble ligands binding to PDGFR alpha, further defined the mechanistic properties of the macromolecular recognition process. […]
# cDNA encoding aminoacids 1-834 of human PDGFR alpha was inserted in the pcDNA V5 HIS A vector (Invitrogen), in order to fuse the COOH— terminal of the protein with a 6× histidine tag. […] Presence of a single His-tagged PDGFR alpha product in eluted fractions was evaluated by immunoblotting with specific anti-PDGFR alpha (R&D Biosystems) and anti-histidine (Sigma-Aldrich) monoclonal antibodies. […]
# […] For binding assays, monophasic time courses were always reported upon addition of soluble rHumaab (the validity of the monophasic model in fitting each time course was assessed according to a standard F-test procedure, with the biphasic model being statistically nonsignificant at 95% confidence) (Bevington P R and Robinson D K. McGraw-Hill Book Company, New York. 1992).
# Target sequence in this assay (P16234 24-834): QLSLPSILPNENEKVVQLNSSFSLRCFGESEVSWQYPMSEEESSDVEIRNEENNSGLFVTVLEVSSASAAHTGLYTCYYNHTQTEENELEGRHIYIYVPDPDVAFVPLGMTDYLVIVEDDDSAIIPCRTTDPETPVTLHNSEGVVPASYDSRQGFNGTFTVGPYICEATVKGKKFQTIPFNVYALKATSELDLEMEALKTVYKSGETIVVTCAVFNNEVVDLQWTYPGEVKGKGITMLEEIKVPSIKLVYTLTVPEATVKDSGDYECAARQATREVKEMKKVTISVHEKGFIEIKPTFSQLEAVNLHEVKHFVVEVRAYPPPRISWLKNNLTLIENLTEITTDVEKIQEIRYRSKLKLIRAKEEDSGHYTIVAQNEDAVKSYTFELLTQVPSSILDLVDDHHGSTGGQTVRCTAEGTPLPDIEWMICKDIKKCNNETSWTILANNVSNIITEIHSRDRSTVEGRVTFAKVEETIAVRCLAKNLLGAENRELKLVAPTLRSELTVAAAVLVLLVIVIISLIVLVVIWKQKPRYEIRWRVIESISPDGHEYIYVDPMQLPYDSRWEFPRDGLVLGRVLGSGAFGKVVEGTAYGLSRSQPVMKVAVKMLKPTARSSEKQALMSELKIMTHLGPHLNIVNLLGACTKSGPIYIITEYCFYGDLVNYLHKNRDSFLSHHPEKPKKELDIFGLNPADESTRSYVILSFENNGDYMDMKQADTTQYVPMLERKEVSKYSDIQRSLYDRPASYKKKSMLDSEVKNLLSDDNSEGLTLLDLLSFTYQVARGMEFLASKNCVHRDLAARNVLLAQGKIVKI
# normal human fibroblasts [3] = experiment: ROS production in normal human fibroblasts (DCFH-DA fluorescence); type: cell-based; settings: 10 micrograms/ml, 15 minutes incubation
# Excerpt: as §1
# normal human fibroblasts [4] = experiment: ERK phosphorylation (p-ERK immunoblot) in normal human fibroblasts; type: cell-based; settings: 10 micrograms/ml, 15 minutes incubation
# Excerpt: as §1
# PDGFR alpha [5] = biological target: T1, PDGFR alpha; experiment: immunoprecipitation and immunoblotting of PDGFR alpha from human fibroblast extracts; type: binding; parameters: 100 micrograms of total protein from human fibroblast extract; endogenous in cells; host or cells: normal human (skin) fibroblasts, total cell extract; settings: normal human fibroblast extracts; 10 micrograms/ml
# Method: Immunoprecipitating antibodies were individually incubated for 4 hours at 4° C. with an aliquot of 100 micrograms of total protein from human fibroblast extract. The reaction mixture was adjusted to a final volume of 500 microliters with assay buffer (PBS, 1% Nonidet P-40, 0.5% sodium deoxycholate, 1 mM PMSF). Rabbit anti-PDGFR alpha antibody and rabbit IgG (Santa Cruz), IgG purified from EBV-transformed B cell culture supernatants and rHumaab were used at 10 micrograms/ml, total IgG purified from serum of SSc patients and healthy subjects at 200 micrograms/ml. Then, 20 microliters agarose-Protein A/G (Santa Cruz) were added to the antibody-cell extract mixture and incubated overnight under rotation at 4° C. After centrifugation and extensive washing, immunoprecipitates were suspended in 20 microliters of loading buffer (150 mM Tris-HCl, pH 6.8/6% SDS/0.3% bromophenol blue/30% glycerol) and heated to 100° C. for 10 minutes prior to immunoblotting with a commercial rabbit anti-PDGFR alpha antibody (Santa Cruz).
# Target sequence in this assay (P16234 24-1089): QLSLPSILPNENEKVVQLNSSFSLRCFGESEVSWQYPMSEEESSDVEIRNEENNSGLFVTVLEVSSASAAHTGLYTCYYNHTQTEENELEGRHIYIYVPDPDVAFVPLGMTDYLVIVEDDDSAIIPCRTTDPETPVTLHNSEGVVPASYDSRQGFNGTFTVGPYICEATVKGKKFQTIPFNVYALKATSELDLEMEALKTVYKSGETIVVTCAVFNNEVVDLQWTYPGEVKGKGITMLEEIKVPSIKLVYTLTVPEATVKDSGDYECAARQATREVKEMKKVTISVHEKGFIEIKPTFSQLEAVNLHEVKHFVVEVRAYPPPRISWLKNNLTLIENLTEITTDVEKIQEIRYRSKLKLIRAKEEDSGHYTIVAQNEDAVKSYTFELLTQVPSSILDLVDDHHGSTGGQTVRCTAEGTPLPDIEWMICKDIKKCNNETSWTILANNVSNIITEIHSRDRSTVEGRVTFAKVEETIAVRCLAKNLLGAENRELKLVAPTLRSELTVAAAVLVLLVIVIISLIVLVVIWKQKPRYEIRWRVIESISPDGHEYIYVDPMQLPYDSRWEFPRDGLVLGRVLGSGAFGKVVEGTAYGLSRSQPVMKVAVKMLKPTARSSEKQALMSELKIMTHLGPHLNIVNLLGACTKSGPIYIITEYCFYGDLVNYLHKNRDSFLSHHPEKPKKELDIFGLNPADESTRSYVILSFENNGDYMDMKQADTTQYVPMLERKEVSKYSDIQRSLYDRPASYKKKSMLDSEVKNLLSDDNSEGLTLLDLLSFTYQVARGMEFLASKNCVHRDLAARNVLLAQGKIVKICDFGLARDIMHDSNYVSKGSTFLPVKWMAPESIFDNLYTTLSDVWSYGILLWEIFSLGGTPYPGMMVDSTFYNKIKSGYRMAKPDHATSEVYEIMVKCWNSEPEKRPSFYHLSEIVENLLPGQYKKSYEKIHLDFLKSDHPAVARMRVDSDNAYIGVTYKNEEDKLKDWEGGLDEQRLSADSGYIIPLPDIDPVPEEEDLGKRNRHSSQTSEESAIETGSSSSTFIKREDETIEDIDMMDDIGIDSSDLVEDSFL
# PDGFR alpha [6] = biological target: T1, PDGFR alpha; experiment: competitive binding on optical biosensor; parameters: cDNA encoding aminoacids 1-834 of human PDGFR alpha; made in house; settings: immobilized His-tagged PDGFR alpha saturated with molar excess of PDGF-BB
# Method: To draw a map of the PDGFR alpha epitopes recognized by the rHumaab, competitive binding experiments were performed on the optical biosensor platform, where the surface of immobilized HIS-tagged PDGFR alpha was saturated with PDGF-BB prior to the addition of each rHumaab.
# Binding assays were performed on a IAsys plus biosensor. The carboxylate surface was equilibrated with PBS buffer, and activated by addition of an equimolar mixture of N-hydroxysuccinimide and N-ethyl-N-(dimethylaminopropyl) carbodiimide hydrochloride following the standard procedure (Davies, R J et al. Academic Press: San Diego, 1994).
# Next, His-tagged PDGFR alpha (200 micrograms/mL) was incubated over the surface for 20 min, and free carboxylic sites on the sensor surface were deactivated by injection of 1M ethanolamine, pH 8.5. Finally, the surface was re-equilibrated with PBS. rHumaab and PDGF-BB were added at different concentrations, and association kinetics were followed up to equilibrium, whereas dissociation steps and surface regeneration were performed by addition of fresh buffer, each time assessing the baseline recovery prior to any new addition of ligand. Kinetic and equilibrium parameters were derived from global fit of raw data both to mono- and bi-exponential models (Cuccioloni M et al. J Lipid Res 2011; 52 (5): 897-907).
# Target sequence in this assay (P16234 24-834): as the sequence (P16234 24-834) above
Molecule,duration of collagen gene stimulation (normal human fibroblasts [1]),kass (association rate constant) (PDGFR alpha [2]),ROS production (normal human fibroblasts [3]),kdiss (dissociation rate constant) (PDGFR alpha [2]),ERK phosphorylation (p-ERK) (normal human fibroblasts [4]),immunoprecipitation of PDGFR alpha (PDGFR alpha [5]),binding to PDGFR alpha pre-saturated with PDGF-BB (PDGFR alpha [6])
"PDGF-BB: human PDGF-BB, natural binding partner (physiological ligand) of PDGFR alpha [reference compound]",up to 6 hours,3e+07 M⁻¹ s⁻¹,–,–,–,–,–
B1,–,–,induced,0.003 s⁻¹,increased,specifically bound,–
B2,–,–,–,0.035 s⁻¹,–,specifically bound,bound
